Measured values from article PMC2557009.

Legend:
[1] = biological target: tubulin (sheep brain) (sheep); assay: co-sedimentation; 20 μM tubulin polymerised with 5 μM YB-1 in buffer M with 10% glycerol at 37°C to steady state, microtubules pelleted at 300 000 × g; SDS-PAGE, visual estimation on Coomassie stained gels; conditions: scale: mole of YB-1 per mole of tubulin heterodimer
[2] = biological target: tubulin (sheep brain) (sheep); assay: co-sedimentation; 20 μM tubulin polymerised with 10 μM YB-1 in buffer M with 10% glycerol at 37°C to steady state, microtubules pelleted at 300 000 × g; SDS-PAGE, visual estimation on Coomassie stained gels; conditions: scale: mole of YB-1 per mole of tubulin heterodimer

Chain of YB-1 (Q28618 whole entry): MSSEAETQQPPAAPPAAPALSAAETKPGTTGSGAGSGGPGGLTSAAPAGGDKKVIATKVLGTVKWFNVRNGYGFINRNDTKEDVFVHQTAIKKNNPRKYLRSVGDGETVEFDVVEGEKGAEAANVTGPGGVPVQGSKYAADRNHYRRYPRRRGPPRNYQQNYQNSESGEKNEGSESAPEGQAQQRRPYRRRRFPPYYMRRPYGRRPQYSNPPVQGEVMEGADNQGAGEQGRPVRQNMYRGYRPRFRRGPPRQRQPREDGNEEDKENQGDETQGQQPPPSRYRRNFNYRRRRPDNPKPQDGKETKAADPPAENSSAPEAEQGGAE

YB-1 (from UniProt Q28618 1-324) (natural protein)
stoichiometry N [1]: 0.33 | stoichiometry N [2]: 0.5
